Reference: US20240067722A1

Columns and labels:
[1] = biological target: human LAG-3 expressed on cells (human) (UniProt P18627)
[2] = biological target: Recombinant human LAG-3 protein (Fc Chimera), R&D 2319-L3 (human) (UniProt P18627); assay: flow cytometry competition, huLAG-3-Fc on HLA-DR expressing cells, VHH at 500 nM

Binder | GFP expression by 2D3 cells (measure of TCR signaling) [1] | percent block of the LAG-3/HLA-DR interaction [2]
huLAG-3 specific VHH 3150 (VHH) VHH: QVQLQESGGGLVQAGGSLRLSCAASGITFDDYAIGWFRQAPGKEREGVSCIRSSDDSTYYADSVKGRFTISSDNAKNTVYLQMNSLKPEDTAVYYCARDVYSDCKGPYDSWGRGTQVTVSS | 2 fold | 75%
huLAG-3 specific VHH 3185 (VHH) VHH: QVQLQESGGGLVQPGGSLKLSCAASGFTWDYSAIGWFRQAPGKEREGVSCITSSGKDTQYLDSVKGRFTISRDNTKNTVYLQMNNLKPEDTAVYYCAAPGRVRGSCNGRWDYWGQGTQVTVSS |  | 75%
